Test [1] has as its target human 40S ribosomal subunit lacking RACK1 (ΔRACK1 40S) (human (endogenous in HAP1)) (UniProt P23396). Kind of test: native gel or EMSA. On the technique in general: Mobility shift assays separate free from complexed probe on a gel.
Test [2] has the same target. Put plainly: FRET or BRET. (BRET reads energy transfer from a luciferase to a nearby fluorophore.)

In publication doi:10.1101/582635 one finds t1/2 (half-life on the 40S subunit), kobs (fast phase, 75 nM) and kon (fast phase) data, which are given here for 2 molecules.

“RACK1-ybbR expressed in ΔRACK1 HAP1 cells (native, ribosome-bound) (from UniProt P63244 1-317) (natural protein)”: the t1/2 (half-life on the 40S subunit) in test [1] turned out to be 15 h.

B1: recombinant S. cerevisiae Asc1p-ybbR (RACK1 ortholog) (natural protein)
chain: MASNEVLVLRGTLEGHNGWVTSLATSAGQPNLLLSASRDKTLISWKLTGDDQKFGVPVRSFKGHSHIVQDCTLTADGAYALSASWDKTLRLWDVATGETYQRFVGHKSDVMSVDIDKKASMIISGSRDKTIKVWTIKGQCLATLLGHNDWVSQVRVVPNEKADDDSVTIISAGNDKMVKAWNLNQFQIEADFIGHNSNINTLTASPDGTLIASAGKDGEIMLWNLAAKKAMYTLSAQDEVFSLAFSPNRYWLAAATATGIKVFSLDPQYLVDDLRPEFAGYSKAAEPHAVSLAWSADGQTLFAGYTDNVIRVWQVMTAN
In test [2], B1 showed a kobs (fast phase, 75 nM) of 0.2 s⁻¹ and a kon (fast phase) of 2e+06 M⁻¹ s⁻¹.
